From patent US20230051847A1 (Johns Hopkins, published 2023)

B1: H/R/N RAS Q61R_A1_cl3 (scFv)
scFv: DIQMTQSPSSLSASVGDRVTITCRASQDVNTAVAWYQQKPGKAPKLLIYSASFLYSGVPSRFSGSRSGTDFTLTISSLQPEDFATYYCQQSYYAPITFGQGTKVEIKRTGGGSGGGGSGGGASEVQLVESGGGLVQPGGSLRLSCAASGFNVQWSHMHWVRQAPGKGLEWVARLSPPSGYTNYADSVKGRFTISADTSKNTAYLQMNSLRAEDTAVYYCSRLILSKGGYGWAMDYWGQGTLVTVSS
B2: H/R/N RAS Q61R_A1_cl2 (scFv)
scFv: DIQMTQSPSSLSASVGDRVTITCRASQDVNTAVAWYQQKPGKAPKLLIYSASFLYSGVPSRFSGSRSGTDFTLTISSLQPEDFATYYCQQYWYYYPITFGQGTKVEIKRTGGGSGGGGSGGGASEVQLVESGGGLVQPGGSLRLSCAASGFNIYSYDMHWVRQAPGKGLEWVAISPGGSYTYYADSVKGRFTISADTSKNTAYLQMNSLRAEDTAVYYCSRSAFTGYFDVWGQGTLVTVSS
B3: H/R/N RAS Q61R_A1_cl7 (scFv)
scFv: DIQMTQSPSSLSASVGDRVTITCRASQDVNTAVAWYQQKPGKAPKLLIYSASFLYSGVPSRFSGSRSGTDFTLTISSLQPEDFATYYCQQYASDPITFGQGTKVEIKRTGGGSGGGGSGGGASEVQLVESGGGLVQPGGSLRLSCAASGFNLDYGWMHWVRQAPGKGLEWVAWVVPGSDYTDYADSVKGRFTISADTSKNTAYLQMNSLRAEDTAVYYCSRFHYTAFDVWGQGTLVTVSS
B4: H/R/N RAS Q61R_A1_cl18 (scFv)
scFv: DIQMTQSPSSLSASVGDRVTITCRASQDVNTAVAWYQQKPGKAPKLLIYSASFLYSGVPSRFSGSRSGTDFTLTISSLQPEDFATYYCQQYIYDPVTFGQGTKVEIKRTGGGSGGGGSGGGASEVQLVESGGGLVQPGGSLRLSCAASGFNVDWAWMHWVRQAPGKGLEWVAWVVGGSDYTYYADSVKGRFTISADTSKNTAYLQMNSLRAEDTAVYYCSRSYYYAFDYWGQGTLVTVSS
B5: H/R/N RAS Q61R_A1_cl1 (scFv)
scFv: DIQMTQSPSSLSASVGDRVTITCRASQDVNTAVAWYQQKPGKAPKLLIYSASFLYSGVPSRFSGSRSGTDFTLTISSLQPEDFATYYCQQSYTSPLTFGQGTKVEIKRTGGGSGGGGSGGGASEVQLVESGGGLVQPGGSLRLSCAASGFNIYYGVMHWVRQAPGKGLEWVAMIYPDSSWTYYADSVKGRFTISADTSKNTAYLQMNSLRAEDTAVYYCSRDQDFHYMNYYLSYALDYWGQGTLVTVSS
notes: also called H/K/N RAS Q61R(55-64)-A1 cl.1
B6: H/R/N RAS Q61R_A1_cl13 (scFv)
scFv: DIQMTQSPSSLSASVGDRVTITCRASQDVNTAVAWYQQKPGKAPKLLIYSASFLYSGVPSRFSGSRSGTDFTLTISSLQPEDFATYYCQQYSYDPITFGQGTKVEIKRTGGGSGGGGSGGGASEVQLVESGGGLVQPGGSLRLSCAASGFNFSYSAMHWVRQAPGKGLEWVADVVPDGDWTYYADSVKGRFTISADTSKNTAYLQMNSLRAEDTAVYYCSRGWYALDYWGQGTLVTVSS
B7: H/R/N RAS Q61R_A1_cl19 (scFv)
scFv: DIQMTQSPSSLSASVGDRVTITCRASQDVNTAVAWYQQKPGKAPKLLIYSASFLYSGVPSRFSGSRSGTDFTLTISSLQPEDFATYYCQQLMYDPITFGQGTKVEIKRTGGGSGGGGSGGGASEVQLVESGGGLVQPGGSLRLSCAASGFNFGTYWMHWVRQAPGKGLEWVAWFLPDYDYTLYADSVKGRFTISADTSKNTAYLQMNSLRAEDTAVYYCSRHGEYAFDYWGQGTLVTVSS
B8: H/R/N RAS Q61R_A1_cl5 (scFv)
scFv: DIQMTQSPSSLSASVGDRVTITCRASQDVNTAVAWYQQKPGKAPKLLIYSASFLYSGVPSRFSGSRSGTDFTLTISSLQPEDFATYYCQQYYLYQPITFGQGTKVEIKRTGGGSGGGGSGGGASEVQLVESGGGLVQPGGSLRLSCAASGFNIGMYTMHWVRQAPGKGLEWVALVYPDSGYTNYADSVKGRFTISADTSKNTAYLQMNSLRAEDTAVYYCSRYTWQSMDYWGQGTLVTVSS
B9: H/K/N RAS Q61L_A1_cl11 (scFv)
scFv: DIQMTQSPSSLSASVGDRVTITCRASQDVNTAVAWYQQKPGKAPKLLIYSASFLYSGVPSRFSGSRSGTDFTLTISSLQPEDFATYYCQQYDRPITFGQGTKVEIKRTGGGSGGGGSGGGASEVQLVESGGGLVQPGGSLRLSCAASGFNIYYEAMHWVRQAPGKGLEWVAQIYPWNDYTYYADSVKGRFTISADTSKNTAYLQMNSLRAEDTAVYYCSRNYYAATMDYWGQGTLVTVSS
B10: H/K/N RAS Q61L_A1_cl4 (scFv)
scFv: DIQMTQSPSSLSASVGDRVTITCRASQDVNTAVAWYQQKPGKAPKLLIYSASFLYSGVPSRFSGSRSGTDFTLTISSLQPEDFATYYCQQSWYSPSTFGQGTKVEIKRTGGGSGGGGSGGGASEVQLVESGGGLVQPGGSLRLSCAASGFNISASGMHWVRQAPGKGLEWVAWIWGGSSYTYYADSVKGRFTISADTSKNTAYLQMNSLRAEDTAVYYCSRGQYLSYMDYWGQGTLVTVSS
B11: H/K/N RAS Q61L_A1_cl10 (scFv)
scFv: DIQMTQSPSSLSASVGDRVTITCRASQDVNTAVAWYQQKPGKAPKLLIYSASFLYSGVPSRFSGSRSGTDFTLTISSLQPEDFATYYCQQSYYPYYPWTFGQGTKVEIKRTGGGSGGGGSGGGASEVQLVESGGGLVQPGGSLRLSCAASGFNVSHSAMHWVRQAPGKGLEWVATVHPDWGNTYYADSVKGRFTISADTSKNTAYLQMNSLRAEDTAVYYCSRWQQYYYSFDYWGQGTLVTVSS
B12: H/K/N RAS Q61L_A1_cl1 (scFv)
scFv: DIQMTQSPSSLSASVGDRVTITCRASQDVNTAVAWYQQKPGKAPKLLIYSASFLYSGVPSRFSGSRSGTDFTLTISSLQPEDFATYYCQQASRQPYTFGQGTKVEIKRTGGGSGGGGSGGGASEVQLVESGGGLVQPGGSLRLSCAASGFNFSESGMHWVRQAPGKGLEWVAHFSGDSGYTYYADSVKGRFTISADTSKNTAYLQMNSLRAEDTAVYYCSRYMYYSGYFDYWGQGTLVTVSS
B13: H/K/N RAS Q61L_A1_cl9 (scFv)
scFv: DIQMTQSPSSLSASVGDRVTITCRASQDVNTAVAWYQQKPGKAPKLLIYSASFLYSGVPSRFSGSRSGTDFTLTISSLQPEDFATYYCQQTYYYPFTFGQGTKVEIKRTGGGSGGGGSGGGASEVQLVESGGGLVQPGGSLRLSCAASGFNLYAWGMHWVRQAPGKGLEWVALVYGGWGSTSYADSVKGRFTISADTSKNTAYLQMNSLRAEDTAVYYCSRAGSSKMSAGAFDYWGQGTLVTVSS
B14: H/K/N RAS Q61L_A1_cl8 (scFv)
scFv: DIQMTQSPSSLSASVGDRVTITCRASQDVNTAVAWYQQKPGKAPKLLIYSASFLYSGVPSRFSGSRSGTDFTLTISSLQPEDFATYYCQQSYSSGPVTFGQGTKVEIKRTGGGSGGGGSGGGASEVQLVESGGGLVQPGGSLRLSCAASGFNFSYGGIHWVRQAPGKGLEWVAMIYPLTGYTNYADSVKGRFTISADTSKNTAYLQMNSLRAEDTAVYYCSRDYYYSVDVWGQGTLVTVSS
B15: H/K/N RAS Q61L_A1_cl3 (scFv)
scFv: DIQMTQSPSSLSASVGDRVTITCRASQDVNTAVAWYQQKPGKAPKLLIYSASFLYSGVPSRFSGSRSGTDFTLTISSLQPEDFATYYCQQTSSYPITFGQGTKVEIKRTGGGSGGGGSGGGASEVQLVESGGGLVQPGGSLRLSCAASGFNIYWYGMHWVRQAPGKGLEWVAQVYPWSGFTYYADSVKGRFTISADTSKNTAYLQMNSLRAEDTAVYYCSRDYYSYSLDYWGQGTLVTVSS
B16: H/K/N RAS Q61L_A1_cl7 (scFv)
scFv: DIQMTQSPSSLSASVGDRVTITCRASQDVNTAVAWYQQKPGKAPKLLIYSASFLYSGVPSRFSGSRSGTDFTLTISSLQPEDFATYYCQQAYYPPWTFGQGTKVEIKRTGGGSGGGGSGGGASEVQLVESGGGLVQPGGSLRLSCAASGFNVSRWAMHWVRQAPGKGLEWVARVYPSGYLTYYADSVKGRFTISADTSKNTAYLQMNSLRAEDTAVYYCSRNMQSYMDYWGQGTLVTVSS
B17: H/K/N RAS Q61L_A1_cl6 (scFv)
scFv: DIQMTQSPSSLSASVGDRVTITCRASQDVNTAVAWYQQKPGKAPKLLIYSASFLYSGVPSRFSGSRSGTDFTLTISSLQPEDFATYYCQQSYYSPWTFGQGTKVEIKRTGGGSGGGGSGGGASEVQLVESGGGLVQPGGSLRLSCAASGFNISYSNIHWVRQAPGKGLEWVAMIYGTRGGTYYADSVKGRFTISADTSKNTAYLQMNSLRAEDTAVYYCSRYYSYAMDYWGQGTLVTVSS
B18: H/K/N RAS Q61H_A1_cl8 (scFv)
scFv: DIQMTQSPSSLSASVGDRVTITCRASQDVNTAVAWYQQKPGKAPKLLIYSASFLYSGVPSRFSGSRSGTDFTLTISSLQPEDFATYYCQQSFSTPITFGQGTKVEIKRTGGGSGGGGSGGGASEVQLVESGGGLVQPGGSLRLSCAASGFNISEYLMHWVRQAPGKGLEWVALLPPGLSYTNYADSVKGRFTISADTSKNTAYLQMNSLRAEDTAVYYCSRYGYYAFDYWGQGTLVTVSS
B19: H/K/N RAS Q61H_A1_cl9 (scFv)
scFv: DIQMTQSPSSLSASVGDRVTITCRASQDVNTAVAWYQQKPGKAPKLLIYSASFLYSGVPSRFSGSRSGTDFTLTISSLQPEDFATYYCQQGEYSPLTFGQGTKVEIKRTGGGSGGGGSGGGASEVQLVESGGGLVQPGGSLRLSCAASGFNVFESAMHWVRQAPGKGLEWVAWVYGSYDYTYYADSVKGRFTISADTSKNTAYLQMNSLRAEDTAVYYCSRSFAYFQAMDYWGQGTLVTVSS
B20: H/K/N RAS Q61H_A1_cl5 (scFv)
scFv: DIQMTQSPSSLSASVGDRVTITCRASQDVNTAVAWYQQKPGKAPKLLIYSASFLYSGVPSRFSGSRSGTDFTLTISSLQPEDFATYYCQQSSYSPWTFGQGTKVEIKRTGGGSGGGGSGGGASEVQLVESGGGLVQPGGSLRLSCAASGFNISPWDMHWVRQAPGKGLEWVAQLYPSSGYTNYADSVKGRFTISADTSKNTAYLQMNSLRAEDTAVYYCSRSVYWSLDYWGQGTLVTVSS

Target: T1, RAS Q61WT[55-64] pHLA-A1 (human)
T1 construct: also called Q61WT pHLA-A1; H/K/N RAS WT(55-64) peptide on HLA-A1
Experiment: flow cytometry: scFv phage supernatant on peptide-pulsed SigM5 cells (HLA-A1+), median fluorescence intensity

Q: Does B1 bind?
A: no binding

Q: Does B2 bind?
A: no binding

Q: Does B3 bind?
A: no binding

Q: Does B4 bind?
A: no binding

Q: Does B5 bind?
A: no binding

Q: Does B6 bind?
A: no binding

Q: Does B7 bind?
A: no binding

Q: Does B8 bind?
A: no binding

Target: T1, RAS Q61WT[55-64] pHLA-A1
Experiment: as above
Remark: another data set of the same source

Q: Does B9 bind?
A: no binding

Q: Does B10 bind?
A: no binding

Q: Does B11 bind?
A: no binding

Q: Does B12 bind?
A: no binding

Q: Does B13 bind?
A: no binding

Q: Does B14 bind?
A: no binding

Q: Does B15 bind?
A: no binding

Q: Does B16 bind?
A: no binding

Q: Does B17 bind?
A: no binding

Target: T1, RAS Q61WT[55-64] pHLA-A1
Experiment: as above
Remark: another data set of the same source

Q: Does B18 bind?
A: no binding

Q: Does B19 bind?
A: no binding

Q: Does B20 bind?
A: no binding
